{"source": "patent US20240082398A1", "about": "“METHODS OF PREPARING AND EXPANDING TYPE I INNATE LYMPHOID CELLS AND THERAPEUTIC USES THEREOF” (City of Hope, priority 2021, published 2024)", "system": "IFN-γ^+ ILC1s", "experiment": "In vitro stimulation: IFN-γ production by ILC1s", "type": "cell-based, mouse", "conditions": "neutralizing antibody 10 μg/ml with LSCs, or IL-7 100 ng/ml; 12 h, IL-12 plus IL-15", "description": "ILC1s from human peripheral blood were identified by a surface stain including a live/dead cell viability cell staining kit (Invitrogen) and the following monoclonal antibodies: lineage (FITC-conjugated anti-CD3, anti-CD4, anti-CD8, anti-CD14, anti-CD15, anti-CD16, anti-CD19, anti-CD20, anti-CD33, anti-CD34, anti-CD203c, anti-FceRI), CD56 (FITC, AF700 or BV421 conjugated anti-CD56), CD127 (APC-conjugated anti-CD127), CRTH2 (PE-Cy7-conjugated anti-CRTH2), and c-Kit (PE-conjugated anti-c-Kit). ILC from mice were identified by a surface stain and the following monoclonal antibodies: lineage (PE-Cy7-conjugated anti-CD3 and anti-CD19), NK1.1 (BV510-conjugated anti-NK1.1), NKp46 (BV421, FITC or AF647-conjugated anti-NKp46), CD49b (BUV395 or PE-conjugated anti-CD49b), and CD49a (BV711-conjugated anti-CD49a). Human LSCs were identified by lineage (FITC-conjugate anti-CD2, anti-CD3, anti-CD4, anti-CD8, anti-CD14, anti-CD19, anti-CD20, anti-Mac-1, anti-CD56, and anti-CD235a), CD45 (BV510-conjugated anti-CD45), CD34 (BV510-conjugate anti-CD34), and CD38 (BV605 conjugated anti-CD38). Mouse LSCs were identified by lineage (PE-Cy7 conjugated anti-CD3, anti-CD19, anti-B220, anti-Ly6G/C, anti-Mac-1, anti-CD11b, and anti-Ter119), Sca-1 (PE-CF594 or BV510-conjugate anti-Sca-1), and c-Kit (BV711-conjugated anti-c-Kit). […]"}
{"molecule": "IL-7: recombinant mouse IL-7 (100 ng/ml) (protein) ECHIKDKEGKAYESVLMISIDELDKMTGTDSNCPNNEPNFFRKHVCDDTKEAAFLNRAARKLKQFLKMNISEEFNVHLLTVSQGTQTLVNCTSKEEKNVKEQKKNDACFLKRLLREIKTCWNKILKGSI", "values": [{"measurement": "effect on production of IFN-γ in normal ILC1s", "result": "significantly increased"}]}
